Results on one substance are retold here after article PMC10111636.

Details in all cases: glycan lost; control: Flag-LARP1-WT
Series [1] can be described thus: Western blot, TMG with or without sh-circCLNS1A#1. (In general: Immunoblotting shows a protein as a band on a membrane.)
Series [2] in a line: cycloheximide chase, sh-circCLNS1A#1 vs sh-NC cells.
Series [3] in a line: cycloheximide chase, Western blot.

La-related protein 1 (LARP1): S672A: the “other: dependence of protein level on circCLNS1A” value in series [1] is reported as “abolishes”. Moreover, in series [2], the “other: dependence of protein stability on circCLNS1A” value is “abolishes”. In addition, the degradation_or_half_life entry in series [3] is on record as “decreases”.
